Legend:
[1] = target: constitutive Corelet construct PPID::FUSn::GFP::FTH1, where PPID=PDZ (UniProt P02794)
[2] = target: constitutive Corelet construct PPID::FUSn::GFP::FTH1, where PPID=PTB (UniProt P02794)

Substance	shikimate production [1]	shikimate production [2]
TAL1 C-terminally tagged with PDZ ligand	The case when all four enzymes are recruited through expression with PTB/PDZ tags (+) shows enhanced shikimate production compared to when certain enzymes are removed from the cluster through expression without fusion to PTB/PDZ tag (-).	–
TKL1 C-terminally tagged with PTB ligand	–	The case when all four enzymes are recruited through expression with PTB/PDZ tags (+) shows enhanced shikimate production compared to when certain enzymes are removed from the cluster through expression without fusion to PTB/PDZ tag (-).
